Data reported in doi:10.1101/2020.07.29.226720 (bioRxiv, 2020).

Molecular target: the molecule itself
Test: SEC

Protein	stoichiometry N
AthPEPCK1 Δ19 truncated mutant (enzyme, Arabidopsis thaliana, UniProt Q9T074 20-671, looked up) GPVMPKITTGAAKRGSGVCHDDSGPTVNATTIDELHSLQKKRSAPTTPINQNAAAAFAAVSEEERQKIQLQSISASLASLTRESGPKVVRGDPAEKKTDGSTTPAYAHGQHHSIFSPATGAVSDSSLKFTHVLYNLSPAELYEQAIKYEKGSFITSNGALATLSGAKTGRAPRDKRVVRDATTEDELWWGKGSPNIEMDEHTFMVNRERAVDYLNSLEKVFVNDQYLNWDPENRIKVRIVSARAYHSLFMHNMCIRPTQEELESFGTPDFTIYNAGQFPCNRYTHYMTSSTSVDLNLARREMVILGTQYAGEMKKGLFSVMHYLMPKRRILSLHSGCNMGKDGDVALFFGLSGTGKTTLSTDHNRYLIGDDEHCWTETGVSNIEGGCYAKCVDLSREKEPDIWNAIKFGTVLENVVFDEHTREVDYSDKSVTENTRAAYPIEFIPNAKIPCVGPHPTNVILLACDAFGVLPPVSKLNLAQTMYHFISGYTALVAGTEDGIKEPTATFSACFGAAFIMLHPTKYAAMLAEKMKSQGATGWLVNTGWSGGSYGVGNRIKLAYTRKIIDAIHSGSLLKANYKKTEIFGFEIPTEIEGIPSEILDPVNSWSDKKAHKDTLVKLGGLFKKNFEVFANHKIGVDGKLTEEILAAGPIF	6
AthPEPCK1 Δ101 truncated mutant (enzyme, Arabidopsis thaliana, UniProt Q9T074 102-671, looked up) ESGPKVVRGDPAEKKTDGSTTPAYAHGQHHSIFSPATGAVSDSSLKFTHVLYNLSPAELYEQAIKYEKGSFITSNGALATLSGAKTGRAPRDKRVVRDATTEDELWWGKGSPNIEMDEHTFMVNRERAVDYLNSLEKVFVNDQYLNWDPENRIKVRIVSARAYHSLFMHNMCIRPTQEELESFGTPDFTIYNAGQFPCNRYTHYMTSSTSVDLNLARREMVILGTQYAGEMKKGLFSVMHYLMPKRRILSLHSGCNMGKDGDVALFFGLSGTGKTTLSTDHNRYLIGDDEHCWTETGVSNIEGGCYAKCVDLSREKEPDIWNAIKFGTVLENVVFDEHTREVDYSDKSVTENTRAAYPIEFIPNAKIPCVGPHPTNVILLACDAFGVLPPVSKLNLAQTMYHFISGYTALVAGTEDGIKEPTATFSACFGAAFIMLHPTKYAAMLAEKMKSQGATGWLVNTGWSGGSYGVGNRIKLAYTRKIIDAIHSGSLLKANYKKTEIFGFEIPTEIEGIPSEILDPVNSWSDKKAHKDTLVKLGGLFKKNFEVFANHKIGVDGKLTEEILAAGPIF	6
